Experimental findings from PMC5446653 are described below.

The assay deals with human coxsackievirus and adenovirus receptor on CHO-CAR cells (human) (UniProt P78310).

With “soluble recombinant HAdV-5 fiber knob Y477A (from UniProt P11818 1-581) (domain or fragment)”, the inhibition of HAdV-5-EGFP transduction of CHO-CAR cells (EGFP-positive cells by flow cytometry) after preincubation with FK*, 0.0001 to 100 μg/10^5 cells, 1 h at 4°C (μg/10^5 cells) is over 100.
